Measured values reported in patent publication US20120027773A1.

How the values were obtained:
[1] = biological target: human wild-type RON (cell surface) (human) (UniProt Q04912); assay: FACS, 10 ug/ml, PC3 cells, 4 C; negative control
[2] = biological target: delta 160 RON variant (cell surface) (human) (UniProt Q04912); assay: FACS, 10 ug/ml, HT-29 cells, 4 C; negative control

PC3 % cell surface binding [1]: 5.5% | HT-29 % cell surface binding [2]: 5.62%
Substance: murine IgG control (antibody)
